The target of assay [1] is beta clamp (Escherichia coli) (UniProt P0A988). As to conditions: cited from earlier work.
Assay [2] has the same target. As to conditions: cited from earlier work. The source holds these as a separate data set.
The target of assay [3] is β-AF488_(2) (β sliding clamp R103C/I305C/C260S/C333S labelled with Alexa Fluor 488) (E. coli) (UniProt P0A988). Nature of the assay: other fluorescence titration; γ complex titrated into β-AF488_(2) (20 nM in the text, 10 nM in the legend) with 0.5 mM ATP; relative AF488 intensity at 520 nm, excitation 495 nm; reaction buffer 20 mM Tris–HCl pH 7.5, 50 mM NaCl, 8 mM MgCl2, 5 mM DTT, 0.5 mM EDTA, 40 μg/ml BSA, 4% glycerol; three independent experiments.

Assay [4] addresses T1, WT γ complex clamp loader (γ3δδ′ψχ) (E. coli, UniProt P06710-2 1-431; P28630 1-343; P28631 1-334; P28632 1-137; P28905 1-147).
T1 construct: DNA polymerase III subunit γ, the truncated form of DnaX made by a translational frameshift, E. coli; DNA polymerase III subunit δ, E. coli; DNA polymerase III subunit δ′, E. coli; DNA polymerase III subunit ψ, E. coli; DNA polymerase III subunit χ, E. coli; also called WT clamp loader; source: expressed and purified as described previously [12, 25–28]; copies: 3 + + + +
Described as above. As to conditions: both partners purified.

Like-named read-outs stand apart in the source and are kept apart here.

Usually Kd stands for a measure of binding affinity in units of concentration. Take “gamma complex clamp loader (from UniProt P06710)”: the Kd in assay [1] is 3.3 nM; in assay [2], 3.2 nM.

The molecule “γ complex containing ψ–GS8–χ (γ3δδ′ψ–GS8–χ) (from UniProt P06710-2 1-431; P28630 1-343; P28631 1-334; P28632 1-137)” yielded a Kd in assay [3] of 4.2 nM.

The molecule “γ complex containing ψ–GS12–χ (γ3δδ′ψ–GS12–χ) (from UniProt P06710-2 1-431; P28630 1-343; P28631 1-334; P28632 1-137)” gave a Kd in assay [3] of 2.1 nM.

B1: β-AF488_(2) (β sliding clamp R103C/I305C/C260S/C333S labelled with Alexa Fluor 488) (natural protein, E. coli, UniProt P0A988 1-366, looked up)
chain: MKFTVEREHLLKPLQQVSGPLGGRPTLPILGNLLLQVADGTLSLTGTDLEMEMVARVALVQPHEPGATTVPARKFFDICRGLPEGAEIAVQLEGERMLVRSGCSRFSLSTLPAADFPNLDDWQSEVEFTLPQATMKRLIEATQFSMAHQDVRYYLNGMLFETEGEELRTVATDGHRLAVCSMPIGQSLPSHSVIVPRKGVIELMRMLDGGDNPLRVQIGSNNIRAHVGDFIFTSKLVDGRFPDYRRVLPKNPDKHLEAGSDLLKQAFARAAILSNEKFRGVRLYVSENQLKITANNPEQEEAEECLDVTYSGAEMEIGFNVSYVLDVLNALKSENVRMMLTDSVSSVQIEDAASQSAAYVVMPMRL
modifications: Alexa Fluor 488 (maleimide) on the introduced surface Cys residues (R103C, I305C)
notes: DNA polymerase III β sliding clamp, E. coli; labelled at both sides of the dimer interface; also called β-AF88_(2); β-R103C/I305C/C260S/C333S; source: expressed and purified as described previously; labelled with AF488 maleimide, purified (BioGel P6-DG desalting, HiTrap Q)
As to B1, binding in assay [4] was put at a Kd of 2 nM.

The record behind these values is paper PMC13213242, “A novel ψ–χ fusion protein for unravelling the contributions of χ to DNA replication and repair” (Nucleic Acids Research, 2026).
